Biological target: T1, recombinant human full length Fzd7 (human, UniProt O75084 33-574)
T1 construct: Frizzled 7 (Fzd7), human, recombinant full length; also called full-length recombinant Fzd7; source: recombinant
Test: co-IP; recombinant human full length Fzd7 mixed in lysis buffer at 1:1 ratio with recombinant human full-length ILK, incubated overnight at 4 °C with anti-Fzd7 Ab; Western blot for ILK and Fzd7
Conditions: both partners purified

binding result: binds
B1: recombinant human full-length ILK (enzyme, UniProt Q13418 1-452, looked up)
chain: MDDIFTQCREGNAVAVRLWLDNTENDLNQGDDHGFSPLHWACREGRSAVVEMLIMRGARINVMNRGDDTPLHLAASHGHRDIVQKLLQYKADINAVNEHGNVPLHYACFWGQDQVAEDLVANGALVSICNKYGEMPVDKAKAPLRELLRERAEKMGQNLNRIPYKDTFWKGTTRTRPRNGTLNKHSGIDFKQLNFLTKLNENHSGELWKGRWQGNDIVVKVLKVRDWSTRKSRDFNEECPRLRIFSHPNVLPVLGACQSPPAPHPTLITHWMPYGSLYNVLHEGTNFVVDQSQAVKFALDMARGMAFLHTLEPLIPRHALNSRSVMIDEDMTARISMADVKFSFQCPGRMYAPAWVAPEALQKKPEDTNRRSADMWSFAVLLWELVTREVPFADLSNMEIGMKVALEGLRPTIPPGISPHVCKLMKICMNEDPAKRPKFDMIVPILEKMQDK
notes: Integrin-linked kinase (ILK), human, recombinant full length; also called full-length recombinant ILK; source: recombinant

Reference: publication PMC11143768, “Integrin-linked kinase-frizzled 7 interaction maintains cancer stem cells to drive platinum resistance in ovarian cancer” (Journal of Experimental & Clinical Cancer Research : CR, 2024)
